{"source": "paper PMC7745063", "about": "“Investigating the reaction and substrate preference of indole-3-acetaldehyde dehydrogenase from the plant pathogen Pseudomonas syringae PtoDC3000” (Bioscience Reports, 2020)", "key": {"[1]": {"molecular_target": "the molecule itself", "test": "crystal structure; AldA C302A with IAA and NAD+, hanging drop at 4°C, 24% PEG-1000, 100 mM Tris/HCl pH 7.0; 2.85 Å; eight monomers in the asymmetric unit"}, "SEC": {"molecular_target": "the molecule itself", "test": "SEC"}}}
{"protein": "AldA C302A mutant (enzyme, source: E. coli BL21 (DE3), purified (Ni-NTA, Superdex-200 size-exclusion)) MTTLTRADWEQRAQNLKIEGRAFIQGEYTAAASGETFDCISPVDGRLLAKVASCDAADAQRAVESARSAFDSGAWSRLAPAKRKATMIRFAGLLEQNAEELALLETLDMGKPISDSLGVDIPGGARALSWSGEAIDKLYDEVAATPHDQLGLVTREPVGVVAAIVPWNFPLMMACWKLGPALSTGNSVVLKPSEKSPLTAIRIAQLAIEAGIPAGVLNVLPGYGHTVGKALALHMDVDTVVFTGSTKIAKQLMIYAGESNMKRVWLEAGGKSPNIVFADAPDLQAAADSAASAIAFNQGEVATAGSRLLVERSIKDRFLPMVIEALGTWKPGNPLDPATNVGALVDTQQMNTVLSYIAAGHTDGARLVAGGKQILQETGGTYVEPTIFDGVNNAMRIAQEEIFGPVLSVLTFDTAEEAIQIANDTPYGLAAAVWTANLSKAHLTARALRAGSVWVNQYDGGDMTAPFGGFKQSGNGRDKSLHAFDKYTELKSTWIKL", "values": [{"measurement": "stoichiometry N", "setting": "[1]", "value": 4}]}
{"protein": "AldA E267Q mutant (enzyme, source: E. coli BL21 (DE3), purified (Ni-NTA, Superdex-200 size-exclusion)) MTTLTRADWEQRAQNLKIEGRAFIQGEYTAAASGETFDCISPVDGRLLAKVASCDAADAQRAVESARSAFDSGAWSRLAPAKRKATMIRFAGLLEQNAEELALLETLDMGKPISDSLGVDIPGGARALSWSGEAIDKLYDEVAATPHDQLGLVTREPVGVVAAIVPWNFPLMMACWKLGPALSTGNSVVLKPSEKSPLTAIRIAQLAIEAGIPAGVLNVLPGYGHTVGKALALHMDVDTVVFTGSTKIAKQLMIYAGESNMKRVWLQAGGKSPNIVFADAPDLQAAADSAASAIAFNQGEVCTAGSRLLVERSIKDRFLPMVIEALGTWKPGNPLDPATNVGALVDTQQMNTVLSYIAAGHTDGARLVAGGKQILQETGGTYVEPTIFDGVNNAMRIAQEEIFGPVLSVLTFDTAEEAIQIANDTPYGLAAAVWTANLSKAHLTARALRAGSVWVNQYDGGDMTAPFGGFKQSGNGRDKSLHAFDKYTELKSTWIKL", "values": [{"measurement": "stoichiometry N", "setting": "SEC", "value": 4}]}
{"protein": "AldA E267A mutant (enzyme, source: E. coli BL21 (DE3), purified (Ni-NTA, Superdex-200 size-exclusion)) MTTLTRADWEQRAQNLKIEGRAFIQGEYTAAASGETFDCISPVDGRLLAKVASCDAADAQRAVESARSAFDSGAWSRLAPAKRKATMIRFAGLLEQNAEELALLETLDMGKPISDSLGVDIPGGARALSWSGEAIDKLYDEVAATPHDQLGLVTREPVGVVAAIVPWNFPLMMACWKLGPALSTGNSVVLKPSEKSPLTAIRIAQLAIEAGIPAGVLNVLPGYGHTVGKALALHMDVDTVVFTGSTKIAKQLMIYAGESNMKRVWLAAGGKSPNIVFADAPDLQAAADSAASAIAFNQGEVCTAGSRLLVERSIKDRFLPMVIEALGTWKPGNPLDPATNVGALVDTQQMNTVLSYIAAGHTDGARLVAGGKQILQETGGTYVEPTIFDGVNNAMRIAQEEIFGPVLSVLTFDTAEEAIQIANDTPYGLAAAVWTANLSKAHLTARALRAGSVWVNQYDGGDMTAPFGGFKQSGNGRDKSLHAFDKYTELKSTWIKL", "values": [{"measurement": "stoichiometry N", "setting": "SEC", "value": 4}]}
{"protein": "AldA indole-3-acetaldehyde dehydrogenase from Pseudomonas syringae strain PtoDC3000, wild-type (enzyme, also called wild-type AldA; WT; source: E. coli BL21 (DE3), purified (Ni-NTA, Superdex-200 size-exclusion)) MTTLTRADWEQRAQNLKIEGRAFIQGEYTAAASGETFDCISPVDGRLLAKVASCDAADAQRAVESARSAFDSGAWSRLAPAKRKATMIRFAGLLEQNAEELALLETLDMGKPISDSLGVDIPGGARALSWSGEAIDKLYDEVAATPHDQLGLVTREPVGVVAAIVPWNFPLMMACWKLGPALSTGNSVVLKPSEKSPLTAIRIAQLAIEAGIPAGVLNVLPGYGHTVGKALALHMDVDTVVFTGSTKIAKQLMIYAGESNMKRVWLEAGGKSPNIVFADAPDLQAAADSAASAIAFNQGEVCTAGSRLLVERSIKDRFLPMVIEALGTWKPGNPLDPATNVGALVDTQQMNTVLSYIAAGHTDGARLVAGGKQILQETGGTYVEPTIFDGVNNAMRIAQEEIFGPVLSVLTFDTAEEAIQIANDTPYGLAAAVWTANLSKAHLTARALRAGSVWVNQYDGGDMTAPFGGFKQSGNGRDKSLHAFDKYTELKSTWIKL", "values": [{"measurement": "stoichiometry N", "setting": "SEC", "value": 4}]}
